According to patent US20260016475A1 (VENTANA MEDICAL SYSTEMS, published 2026):
Where no end group is shown, it is not given here.

Key:
human TAP1 protein = biological target: T1, human TAP1 protein (human, UniProt Q03518 1-748); assay: IHC on sections of cell blocks of 293T, 293T-TAP1 and 293T-TAP2 cells
T1 construct: It is an intracellular protein; also called recombinant TAP1
T1 sequence: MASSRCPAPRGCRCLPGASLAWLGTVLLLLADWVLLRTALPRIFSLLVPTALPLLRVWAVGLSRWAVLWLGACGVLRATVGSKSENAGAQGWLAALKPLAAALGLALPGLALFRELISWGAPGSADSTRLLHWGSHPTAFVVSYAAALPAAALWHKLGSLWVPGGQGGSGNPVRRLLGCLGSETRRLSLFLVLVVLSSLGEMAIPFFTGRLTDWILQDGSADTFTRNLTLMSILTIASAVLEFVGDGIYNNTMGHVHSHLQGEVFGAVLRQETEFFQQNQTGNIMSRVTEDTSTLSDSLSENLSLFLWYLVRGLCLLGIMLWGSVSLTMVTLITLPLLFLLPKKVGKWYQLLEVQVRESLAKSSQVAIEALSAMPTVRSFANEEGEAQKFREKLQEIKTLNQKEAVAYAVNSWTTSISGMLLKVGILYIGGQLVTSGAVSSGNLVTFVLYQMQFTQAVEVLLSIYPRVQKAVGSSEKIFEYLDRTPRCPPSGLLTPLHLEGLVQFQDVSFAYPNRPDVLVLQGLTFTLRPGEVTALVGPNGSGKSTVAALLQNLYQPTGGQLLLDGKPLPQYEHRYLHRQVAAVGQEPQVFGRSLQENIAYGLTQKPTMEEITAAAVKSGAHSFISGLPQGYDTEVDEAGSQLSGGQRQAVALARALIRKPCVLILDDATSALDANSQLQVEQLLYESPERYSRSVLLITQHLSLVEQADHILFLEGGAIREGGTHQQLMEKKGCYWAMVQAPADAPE
Text: anti-TAP1 rabbit monoclonal primary antibodies were directed against the sequence […] (SEQ ID NO: 23), which represents amino acids 625-640 of human TAP1. The peptide was synthesized and covalently conjugated to keyhole limpet haemocyanin (KLH) carrier protein. Rabbits were immunized with KLH-conjugated peptide with complete Freund's adjuvant followed by a series of booster injections of the same immunogen in incomplete Freund's adjuvant. The rabbit that produced the best positive polyclonal antibody by immunohistochemistry (IHC) was chosen for monoclonal development. IHC staining was performed on a BenchMark automated slide stainer at Roche Diagnostics in Tucson, AZ. The staining procedure included deparaffinization, pretreatment using standard Cell Conditioning 1, incubation with antibody (TAP1: 0.925 μg/mL) at 36° C. for 16 min. […] TAP1 was detected by immunohistochemistry (IHC) using OptiView Universal DAB detection kit (Ventana).
Rabbit monoclonal antibody S14H22L21 was applied onto formalin fixed paraffin embedded tissue samples to assess the staining patterns of the antibody by IHC as described in Example 1. […] Cell lysates from HEK293T cells, HEK293T cells expressing TAP1, and HEK293T cells expressing TAP2 were analyzed alongside lysates from a negative control cell line (RPMI6226) and two positive control cell lines (HDLM2 and U266B1).

human TAP2 protein = biological target: T2, human TAP2 protein (human, UniProt Q03519 1-686); assay: western blot of lysates of HEK293T cells expressing TAP2
T2 construct: It is an intracellular protein; also called recombinant TAP2
T2 sequence: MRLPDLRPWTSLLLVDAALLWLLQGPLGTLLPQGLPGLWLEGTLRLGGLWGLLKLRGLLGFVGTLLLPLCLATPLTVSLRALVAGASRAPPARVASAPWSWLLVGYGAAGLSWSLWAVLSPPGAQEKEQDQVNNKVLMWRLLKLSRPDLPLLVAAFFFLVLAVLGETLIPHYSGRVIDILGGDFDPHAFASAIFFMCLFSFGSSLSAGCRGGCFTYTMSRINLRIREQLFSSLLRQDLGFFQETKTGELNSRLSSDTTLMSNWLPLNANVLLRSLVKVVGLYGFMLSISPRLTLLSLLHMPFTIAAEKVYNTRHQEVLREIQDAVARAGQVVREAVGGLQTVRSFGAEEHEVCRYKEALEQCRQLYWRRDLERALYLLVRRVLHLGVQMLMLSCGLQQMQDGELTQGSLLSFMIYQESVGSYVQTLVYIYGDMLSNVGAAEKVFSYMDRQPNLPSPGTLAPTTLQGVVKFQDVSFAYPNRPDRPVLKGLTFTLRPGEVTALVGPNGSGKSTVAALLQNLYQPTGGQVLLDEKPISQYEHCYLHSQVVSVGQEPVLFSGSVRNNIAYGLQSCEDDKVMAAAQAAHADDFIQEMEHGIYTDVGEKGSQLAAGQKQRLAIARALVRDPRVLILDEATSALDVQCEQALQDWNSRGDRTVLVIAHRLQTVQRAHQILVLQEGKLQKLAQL
Protocol: Rabbit monoclonal antibody S14H22L21 was applied onto formalin fixed paraffin embedded tissue samples to assess the staining patterns of the antibody by IHC as described in Example 1. Tissue samples included the positive and negative controls listed in Example 1, 8 ccRCC tissues, and a tour of tumor array (see FIGS. 4A-4B and 5A-5C). Western blot analysis was carried out to assess the specificity of S14H22L21. Cell lysates from HEK293T cells, HEK293T cells expressing TAP1, and HEK293T cells expressing TAP2 were analyzed alongside lysates from a negative control cell line (RPMI6226) and two positive control cell lines (HDLM2 and U266B1).

[1] = biological target: T3, human TAP1 peptide DGKPLPQYEHRYLHR (human, also: conjugated to KLH for immunisation); assay: raised against the peptide; ELISA screen of antibody-expressing cells on the immunogenic peptide (Example 1)
T3 construct: Synthetic peptide, conjugated to KLH for immunisation; also called immunogenic peptide
T3 peptide: DGKPLPQYEHRYLHR

B1: rabbit anti-human TAP1 monoclonal antibody S14H22L21 (antibody, V domains shown)
VH: QSVKESEGGLFKPTDTLTLTCTVSGFSLSSYEVIWVRQAPGKGLEWIGNIGWRDTTFYANWAKSRSTFTRDTNLNTVTLKMTSLTAADTATYFCARDNGYFGIDYWGPGTLVTVSS
VL: DIVMTQTPASVEAAVGGTVTIKCQASQSISNYLAWYQQKPGQPPKLLIYKASTLASGVPSRFSGSGSGTQFTLTISGVQCDDAATYYCQQDFNYRNIENVFGGGTGVVVK
notes: Recombinant rabbit monoclonal, purified on Protein A; also called clone S14H22L21; TAP1 antibody
binding result (human TAP1 protein): binds | binding result (human TAP2 protein): no binding | binding result [1]: binds
